{
  "source": "paper PMC3218206",
  "about": "(Chemical biology & drug design, 2011)",
  "origin": "cited, not measured here",
  "key": {"[1]": {"target": "Nrf2 14mer peptide (Homo sapiens)", "assay": "ITC"}},
  "data": [
    {"substance": "Keap1 (from UniProt Q14145)", "values": [
      {"measurement": "Kd", "setting": "[1]", "result": 20, "unit": "nM"}
    ]},
    {"substance": "LQLDEETGEFLPIQ", "values": [
      {"measurement": "displacement of Nrf2 from Keap1-Nrf2 complex", "setting": "Keap1-Nrf2 complex", "result": "effectively"}
    ]}
  ]
}
